{
  "source": "patent US5302370A",
  "about": "“Chelating agents for forming complexes with radioactive isotopes, metal complexes thereof and use thereof in diagnosis and therapy” (Institut fur Diagnostikforschung GmbH, priority 1989, dated 1994)",
  "molecules": {"B1": {"name": "conjugate of F(ab)2 fragments of the monoclonal antibody 17-1A and the compound [7]: conjugate of F(ab)2 fragments of the monoclonal antibody 17-1A and the compound [7] prepared in Example 1, … (conjugate, chains of the INN, looked up)", "VH": "QVQLQQSGAELVRPGTSVKVSCKASGYAFTNYLIEWVKQRPGQGLEWIGVINPGSGGTNYNEKFKGKATLTADKSSSTAYMQLSSLTSDDSAVYFCARDGPWFAYWGQGTLVTVSA", "VL": "NIVMTQSPKSMSMSVGERVTLTCKASENVVTYVSWYQQKPEQSPKLLIYGASNRYTGVPDRFTGSGSATDFTLTISSVQAEDLADYHCGQGYSYPYTFGGGTKLEIK", "modifications": "F(ab')2 chelate compound [7], Tc-99m label"}},
  "key": {"[1]": {"tested_on": "HT-29 human carcinoma (antigen-positive tumour)", "assay": "Bio-distribution of a protein-bonded Tc-99m complex in hairless mice: antigen-positive HT-29 tumour", "assay_type": "in vivo, human carcinoma in immune-deficient hairless mice", "description": "(§1) The monoclonal antibody 17-1A was obtained by methods known in the literature, after application of 10^7 of the corresponding hybridoma cells to the abdominal cavity of a Balb/c-mouse and suction of the ascites fluid after 7-10 days. Purification was brough about likewise by methods known in the literature, by ammonium sulphate precipitation and affinity chromatography over protein A-sepharose. The purified antibody (10 mg/ml) was treated with 25 μg/ml pepsin at pH 3.5 for 2 hours and then isolated by FPLC. Before coupling to the chelating agent, the fragments were dialysed against 0.1M KH2 PO4 /0.1M NaHCO3, pH 8.5, at 4° C. for 12-24 hours. The protein concentration was adjusted to 10 mg/ml. A 5-fold molar excess of the NCS-containing chelating agent [Example 1] was dissolved in a minimum amount of the same buffer and added to the protein solution. […]\n(§2) The bio-distribution of protein-bonded chelates will be described, using a conjugate of F(ab)2 fragments of the monoclonal antibody 17-1A and the compound [7] prepared in Example 1 as a model. […] The immune reactivity of the conjugates was 70-80% as determined by bonding to an excess of antigen in the cell. The bio-distribution 24 hours after administration of the conjugate was determined by killing the animals, removing the organs and measuring the radioactivity therein."}, "[2]": {"assay": "Bio-distribution of a protein-bonded Tc-99m complex in tumour-bearing hairless mice: organs", "assay_type": "in vivo, immune-deficient hairless mice", "details": "24 hours after i.v. 20 μg conjugate labelled with 200 μCi", "description": "The monoclonal antibody 17-1A was obtained by methods known in the literature, after application of 10^7 of the corresponding hybridoma cells to the abdominal cavity of a Balb/c-mouse and suction of the ascites fluid after 7-10 days. Purification was brough about likewise by methods known in the literature, by ammonium sulphate precipitation and affinity chromatography over protein A-sepharose. The purified antibody (10 mg/ml) was treated with 25 μg/ml pepsin at pH 3.5 for 2 hours and then isolated by FPLC. Before coupling to the chelating agent, the fragments were dialysed against 0.1M KH2 PO4 /0.1M NaHCO3, pH 8.5, at 4° C. for 12-24 hours. The protein concentration was adjusted to 10 mg/ml. A 5-fold molar excess of the NCS-containing chelating agent [Example 1] was dissolved in a minimum amount of the same buffer and added to the protein solution. In order to form the conjugate, the mixture was incubated at 37° C. for 3 hours. Next, the conjugate was dialysed 24-48 hours against PBS (phosphate-buffered saline) with repeated change of buffer, and the protein concentration was re-adjusted to 10 mg/ml when necessary. Before labelling with Tc-99m, the conjugate could be kept in acid-cleaned glass vessels after sterile filtration at 4° C.\n1 mg of the antibody fragment coupled to the chelating agent was labelled with TC-99m by adding 10 mCi pertechnetate solution (=1-2 ml) and 100 μg tin-II chloride in a solution of Na pyrophosphate (1 mg/ml) scavenged with argon or by ligand exchange e.g. by mixing the solution with a commercially obtainable glucoheptonate kit to which pertechnetate had been added.\n(§3) The bio-distribution of protein-bonded chelates will be described, using a conjugate of F(ab)2 fragments of the monoclonal antibody 17-1A and the compound [7] prepared in Example 1 as a model. The antibody from which the fragments were obtained recognise an antigen expressed from the human carcinoma cell line \"HT-29\". […] Isolated cells from both lines were subcutaneously administered to immune-deficient hairless mice. After the tumours had grown to a size of 300-800 mg, the mice were intravenously given 20 μg of the chelate conjugate [Example 17] labelled with 200 μCi. The conjugates were first freed from low-molecular constituents by gel filtration on PD 10 columns manufactured by Messrs. Bio-Rad. The immune reactivity of the conjugates was 70-80% as determined by bonding to an excess of antigen in the cell. The bio-distribution 24 hours after administration of the conjugate was determined by killing the animals, removing the organs and measuring the radioactivity therein."}, "[3]": {"tested_on": "antigen expressed from the human carcinoma cell line \"HT-29\"", "assay": "Immune reactivity of the conjugates by bonding to an excess of antigen in the cell", "assay_type": "binding", "details": "after gel filtration on PD 10", "description": "as §3"}, "[4]": {"tested_on": "MX-1 human carcinoma (control, antigen not expressed)", "assay": "Bio-distribution of a protein-bonded Tc-99m complex in hairless mice: antigen-negative MX-1 control tumour", "assay_type": "in vivo, human carcinoma in immune-deficient hairless mice", "details": "MX-1 tumour (300-800 mg); 24 hours after i.v. 20 μg conjugate labelled with 200 μCi", "description": "as §1, §2"}},
  "data": [
    {"molecule": "B1", "values": [
      {"measurement": "concentration of the chelate in the antigen-positive tumour", "setting": "[1]; 24 hours after i.v. administration", "value": "marked concentration of the chelate in the antigen-positive tumour"},
      {"measurement": "% of applied dose per gram of tissue, HT29", "setting": "[1]; HT29 tumour (300-800 mg), 24 hours after i.v. 20 μg conjugate labelled with 200 μCi", "value": "12.1 % of applied dose per gram of tissue"},
      {"measurement": "% of applied dose per gram of tissue, Blood", "setting": "[2]; blood", "value": "0.6 % of applied dose per gram of tissue"},
      {"measurement": "% of applied dose per gram of tissue, Kidneys", "setting": "[2]; kidneys", "value": "2.8 % of applied dose per gram of tissue"},
      {"measurement": "% of applied dose per gram of tissue, Liver", "setting": "[2]; liver", "value": "1.2 % of applied dose per gram of tissue"},
      {"measurement": "% of applied dose per gram of tissue, Lung", "setting": "[2]; lung", "value": "0.8 % of applied dose per gram of tissue"},
      {"measurement": "% of applied dose per gram of tissue, Muscle", "setting": "[2]; muscle", "value": "0.1 % of applied dose per gram of tissue"},
      {"measurement": "% of applied dose per gram of tissue, Spleen", "setting": "[2]; spleen", "value": "0.3 % of applied dose per gram of tissue"},
      {"measurement": "immune reactivity of the conjugates", "setting": "[3]", "value": "70-80%"},
      {"measurement": "% of applied dose per gram of tissue, MX-1", "setting": "[4]", "value": "1.8 % of applied dose per gram of tissue"}
    ]}
  ]
}
